Reference: a protein production outcome set (Wang et al. 2014)

Assay: label from the status in PepcDB records

| Sequence | protein production |
| --- | --- |
| MDVYHDGACPEVKPVDNFDWSQYHGKWWEVAKYPSPNGKYGKCGWAEYTPEGKSVKVSRYDVIHGKEYFMEGTAYPVGDSKIGKIYHSRTVGGYTKKTVFNVLSTDNKNYIIGYSCRYDEDKKGHWDHVWVLSRSMVLTGEAKTAVENYLIGSPVVDSQKLVYSDFSEAACKVNNSNWSHPQFEK | not failed |
| MDGEIDADELRSKLDEETVRVVDIRSPGAFERGHIPESENVPFPSLVDEVERFEGDDEVVTVCPKGKSSVQAARLIASYEGFDGDVVSFAPGLNGWDGPLERAEDEETPADTAAADRDSDEGPAAPF | failed |
| QRSTFGTKHMVFRTDQLIDGIERNVRITSEEVNAALPVPLLDRQDPGAILISGSSYTEPSEALQTMREAMTQEKFSGSVEIPLGIVRALLDLGFTDEAASWLEDLVPRLGNEWRHQWYSGVTSLLLDDYLTAQQHFNEVYNILPGESAPKLARAAVCEMLLQEKGLESTALLDPAVTVAAADIKGEGMSNIWRELTSDPATLRFKAIYLYALVWRTNPTTVSSAFGLARQLAAENQIDLAVSTLDRVPQNSTHRRMAELTAILHLLGDLSEARLRRAARRLEAIPTNEPRFLQIQIAIMNAALQWLRTGGEAANDPIFEYPFTQRGLRNGLSATLRQLARSAPSSHRYALVDVANQVRPMTWF | not failed |
| MERNSWAEQWDSNQQSSGKTTHGGEGGGASSKYKEKVGAGLGKTKAAASSGLKKVKIGTSLGLNWVKDKYNKTTTKN | failed |
| MEALDWLVIGVFFLALIGIIVWVVRQKQNDSADYFLGGRDATWLAIGASIFASNIGSEHLIGLAGAGASSGMAMAHWEIQGWMILILGWVFVPFYSRSMVYTMPEFLERRYNPQSRTILSVISLVSYVLTKVAVTVYAGGLVFQQVFGIKELWGIDFFWIAAIGLVVLTALYTIFGGMKSVLYTSVLQTPILLLGSLIILVLGFKELGGWDEMMRVCGAVTVNDYGDTMTNLIRSNDDANFPWLGALIGSAIIGFWYWCTDQFIVQRVLSGKNEKEARRGTIFGAYLKLLPVFLFLIPGMIAFALHQKYIGAGGEGFLPMLANGTANADAAFPTLVAKLLPAGVKGLVVCGILAALMSSLASLFNSSAMLFTIDFYKRFRPETPEKKLVGIGQIATVVIVILGILWIPIMRSVGDVLYTYLQDVQSVLAPGIAAAFLLGICWKRTSAQGGMWGLIAGMIIGLTRLGAKVYYSNAGEVADSTFKYLFYDMNWLFFCGWMFLFCIIVVIVVSLATEAPTAEKIQGLVFGTATKEQKAATRASWDHWDIIHTVIILAITGAFYWYFW | failed |
| MESLPFVAAQPTIVPQLQQQVTGLTSSLNSQEKKELTHKLESIFNNTQVQIAVLIVSTTKDETIEQYATRVFDNWRLGDAKRNDGILIVVAWSDRTVRIQVGYGLEEKVTDALAGDIIRSNMIPAFKQQKLAKGLELAIIALNNQLTSQHQYPANPSESESTSSTDHYYFAIFWVFAVMFFPFWFFHQGSNFCRACKSGVCISAIHLLDLFLFSDKTFSIAVFSFFFTFTIFMVFTCLCVLQKRASGRSYHSDNSGSAGGSSGGASGRWLEHHHHHH | failed |
| MTKYGVVGTGYFGAELARFMSKVEGAKITAIYDPVNAAPIAKELNCVATATMEALCTHPDVDCVIIASPNYLRKAPVIAAAKAGKHVFCEKPIALNYQDCKDMVDACKEAGVTFMAGHVMNFFHGVRHAKALIKAGEIGEVTQVHTKRNGFEDVQDEISWKKIRAKSGGHLYHHIHELDCTLFIMDETPSLVSMAAGNVAHKGEKFGDEDDVVLITLEFESGRFATLQWGSSFHYPEHYVLIEGTTGAILIDMQNTAGYLIKAGKKTHFLVHESQAEDDDRRNGNISSEMDGAIAYGKPGKRTPMWLSSIMKLEMQYLHDVINGLEPGEEFAKLLTGEAATNAIATADAATLSSNEGRKVKLTEILG | failed |
| MVLYFIGLGLYDERDITVKGLEIAKKCDYVFAEFYTSLMAGTTLGRIQKLIGKEIRVLSREDVELNFENIVLPLAKENDVAFLTPGDPLVATTHAELRIRAKRAGVESYVIHAPSIYSAVGITGMHIYKFGKSATVAYPEGNWFPTSYYDVIKENAERGLHTLLFLDIKAEKRMYMTANEAMELLLKVEDMKKGGVFTDDTLVVVLARAGSLNPTIRAGYVKDLIREDFGDPPHILIVPGKLHIVEAEYLVEIAGAPREILRVNV | not failed |
| SIVIIFNPNSTGDAPELAQQLHGKLKELLTYQPEITLQPTEHAGHAVDLAREAASKGGDVLVVSVSGDGGYNEVVNGVMQADNPRAVAAVLAAGNANDHSRIIGTKPLEEAIAEGRVHNIDLLRIHTG | failed |
| MFANKILTEKDTDQIRFSILASGSSGNATLVETGDQKILIDCGLSGKKMEGLFAQVGRDMNDLDAILITHEHSDHIKGLGVLARKYKLPIYANAKTWKAMDNMIGEVSSDQKFQFDMETVKNFGSMQVESFGVSHDAIEPMFYIFHKGNKKFVMITDTGYVSDRMKGHIAGADAYLFESNHDVEMLRMGRYPWNVKRRILGDEGHVSNEDAAIAMSEVITDQTKRIYLGHLSKDNNMKELARMSVTQTLMAEGIDVGGKLEIFDTDPDNATSIFTILEHHHHHH | failed |
| MIGHNSPTRTAPLISVTTLDKVALSRLGRDVAVRNRKSRAVLAYLALSPHGFETRERICGLLWSESDEARARASLRQTVVDLKACLAEIEGVFSGDRLNVTLKPSLVTVDVGEIRHELKAGRIPPILLERQRVAESFLNGLDDIDPSFRNWVLVQRQCLQDEFISCLEAMAKAAADWPALKRAGQALLNLDPTNEIGCRAVMEASARMGDQATALRAYKGLWDLLETEFDSEPSAATQALVSDIKLGTIGATDRGAVTAIAAEAFGSQAQRLQEPAAGVLLFVREFELVSGSVRARNAVQIFRSELVASLVRFRDWAVMEWEGHPPRFTENAYCIEATGFIDGPTLRLSMTLKQLASGRYIWSEQFVIENSQWYQTQQRLIRRIAVALGVSMSSERLVQIASIPDLSLEQFDRWLRAQELIFQWRPESEERAEALFRSIIAESPRFAAAYAGLAGIINSRHLIFPGIGRRRERHAEALTFAKQATQIDPIDSRSQLHLAWSYAMNGIPQQAAISFLLACELNGNDPWTLVSASLGLAYCDDRENARRIATLALQTGLGVSRLQWSYQAGVRFLLGDYAGCVEAAERAADSVSYIGGWKAAALALLGNEKAAHEEADRFLAQLKTTWFGNESPEPGNVGTWLMDSFPIYSPEAVEALRRGLAGAGIVVSHMPLPEPVLSAAPDGVVRDA | failed |
| MKSLVKVSLAALALAFAVSAYAAEKELIVATDTAFVPFEFKQGDKYVGFDIDLWDAIAKKLDLKYTLKPMDFSGIIPALQTKNVDLALAGITITDERKKAVDFSDGYYNSGLLVMVKADNNDIKSEADLQGKVLAVKSGTGSVDYAKANIKTKDLRQFPNIDNAYLELGTGRADAVLHDTPNILYFIKTAGNGQFKAVGESIKAQQYGVAFPQGSDLREKVNAALKSLKEDGTYAEIYKKWFGVEPK | failed |
| MRMGLKADSWIKKMSLEHGMISPFCEKQVGKNVISYGLSSYGYDIRVGSEFMLFDNKNALIDPKNFDPNNATKIDASKEGYFILPANAFALAHTIEYFKMPKDTLAICLGKSTYARCGIIVNVTPFEPEFEGYITIEISNTTNLPAKVYANEGIAQVVFLQGDEMCEQSYKDRGGKYQGQVGITLPKILK | failed |
| MFPHLALLNAHKRMHTDGEQQQQQQHNAQAGGDSIAVVSAQGLVQAQNIIGNGQMGQIQIVSSDTLEPVQQSVMQQQQHESKASKCINCGSSMLQQSKRKGPKQVRCESCMQAEQTAQQQQQLFVAQDG | failed |
| MSGKTSITSRSDEFQRQIDHKEMPRDHQIERHTHIHTTRYRGGSLVEEVIEKLERFKVRTVNILVGGEDDEQKK | failed |
| MVGAIARWASLKIVMNPRQLTKTMNIQFLGNITTAILLAVVLQITLWPSAAQACTRILWNNNKLAVVVGRTMDWPESTEPELMVFPQGIKRNGGMLGDMLVVKDNPAQWTSKYGSVVTTVYGMGTVDGLNEKGLGMHMLYLTATDFGPRNPKKAGVQAGLWGQYLLDNAATVKEALALMNEIQPVMVALDDMKATVHLAIEDASGDSAILEYVEGKLVVHHGPEYRVMTNDPTYDQQLKFLETWDFTNATRQTPLPGNVDPKDRFVRASYYQMMLPEPKTEQEAIAGILAIARNTSVPFGAPNNIPGSLYNTEYRTAIDLTNRRYFFELTTSPNVIWVNLDQLNLAPGAPVLSLDPDNLDLSGNVTDKFTKVLKSPF | failed |
| APFFEMKLKHYKIFEGMPVTFTCRVAGNPKPKIYWFKDGKQISPKSDHYTIQRDLDGTCSLHTTASTLDDDGNYTIMAANPQGRISCTGRLMVQAVN | not failed |
